This passage reports Kd results from article doi:10.1101/758409.

In experiment [1] the target is DDA1-DDB1ΔB-DCAF15Δpro triplex (human) (UniProt Q66K64). Nature of the experiment: BLI.
Experiment [2] has the same target. Nature of the experiment: ITC.

RRM1-RRM2 domain of RBM39 (R1R2), sequence (Q14498 150-331): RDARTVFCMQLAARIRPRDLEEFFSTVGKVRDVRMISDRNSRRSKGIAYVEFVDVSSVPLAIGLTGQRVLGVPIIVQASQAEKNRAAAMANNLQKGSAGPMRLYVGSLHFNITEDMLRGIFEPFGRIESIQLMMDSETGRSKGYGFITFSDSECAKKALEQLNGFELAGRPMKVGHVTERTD

Regarding “R1R2(M265L) (from UniProt Q14498 150-331) (domain or fragment)”, the dissociation constant Kd in experiment [1] is 1.2 µM.
“RRM1-RRM2 domain of RBM39 (R1R2) (from UniProt Q14498 150-331) (domain or fragment)”: the dissociation constant Kd amounted to 4.6 µM in experiment [1] and 6.4 µM in experiment [2].
